The record followed here is patent US20230203172A1 (SHANGHAI MABGEEK BIOTECH, published 2023).

Positions count from the first letter of the chain named.

B1: humanized anti-hIL-4R alpha monoclonal antibody 228-Hu (antibody, human IgG4 S228P, kappa, V domains shown)
VH: QVQLVQSGAEVKKPGASVKVSCKASGYTFTDYNMDWVRQAPGQNLEWIGNINPNNGGTFYNQKFKGRATLTVDKSASTAYMELSSLRSEDTAVYYCARGGLRRRGFMDYWGQGTLVTVSS
VL: EIVLTQSPATLSLSPGERATLSCRASSSVIYIHWYQQKPGQSPRPWIYAASNLASGVPARFSGSGSGTDYTLTISRLEPEDFAVYYCQQWSVNPPTFGQGTKLEIKR
notes: Humanized, human IgG4 constant region; expressed in HEK293, purified on ProteinA
B2: Dupilumab (antibody, V domains shown)
VH: EVQLVESGGGLEQPGGSLRLSCAGSGFTFRDYAMTWVRQAPGKGLEWVSSISGSGGNTYYADSVKGRFTISRDNSKNTLYLQMNSLRAEDTAVYYCAKDRLSITIRPRYYGLDVWGQGTTVTVSS
VL: DIVMTQSPLSLPVTPGEPASISCRSSQSLLYSIGYNYLDWYLQKSGQSPQLLIYLGSNRASGVPDRFSGSGSGTDFTLKISRVEAEDVGFYYCMQALQTPYTFGQGTKLEIKR
B3: murine anti-hIL-4R alpha monoclonal antibody 29 (antibody, V domains shown)
VH: EVQLVESGGGLVKPGGSLKLSCAASGFTFSDYGMHWVRQAPEKGLEWVAYINSGSSKIYHADTVKGRFTISRDNAKNTLFLQMTSLRSEDTAMYYCARFPTVVAARYPMDYWGQGTSVTVSS
VL: DIQMTQTPSSLSASLGDRVTISCRASQDISNYLNWYQQKPDGTVKLLIYFTSRLHSGVPSRFSGGGSGTDYSLTISNLEQEDIATYFCQQGNTLPYTFGGGTKLEIK
notes: Mouse hybridoma antibody purified on ProteinG
B4: murine anti-hIL-4R alpha monoclonal antibody 120 (antibody, V domains shown)
VH: B3 VH with N52S, S56T, K57T, H60Y, A75G, F99I, P100S, A105K, P108A
VL: B3 VL with P8A, F50Y, G65S, G91I, T93A, Y96L, G100A, I106L
notes: as for B3
B5: murine anti-hIL-4R alpha monoclonal antibody 131 (antibody, V domains shown)
VH: B3 VH with N52S, K57T, H60Y, F99I, P100S, A105K, P108A
VL: B3 VL with P8A, F50Y, G65S, Q90E, G91V, T93M, Y96L, G100A, I106L
notes: as for B3
B6: murine anti-hIL-4R alpha monoclonal antibody 81 (antibody, V domains shown)
VH: DVQLQQSGPELLKPGASVKIPCQASGYTFTDYNMDWVKQSHGKNLEWIGNINPNNGGTFYNQKFKGKATLTVDKSSSTAYMELRSLTSEDTAVYYCGRGGLRRRGFMDYWGQGTSVTVSS
VL: QIVLSQSPAILSASPGEKVTMTCRASSSVIYIHWYQQKPGSSPKPWIYAASNLASGVPARFSGSGSGTSYSLTISRVEAEDAATYYCQQWSVNPPTFGGGTKLEIK
notes: as for B3
B7: murine anti-hIL-4R alpha monoclonal antibody 84 (antibody, V domains shown)
VH: B6 VH with P9R, P14R
VL: B6 VL
notes: as for B3
B8: murine anti-hIL-4R alpha monoclonal antibody 100 (antibody, V domains shown)
VH: B6 VH with M107L
VL: B6 VL with A50V, A59V
notes: as for B3
B9: murine anti-hIL-4R alpha monoclonal antibody 88 (antibody, V domains shown)
VH: B6 VH with N50T, K63N, Y80C, E89D
VL: B6 VL
notes: as for B3
B10: murine anti-hIL-4R alpha monoclonal antibody 55 (antibody, V domains shown)
VH: B6 VH
VL: B6 VL with A59V
notes: as for B3

The target of the first test is T1, hIL-4R alpha-ECD-Flag (human, UniProt P24394 26-232).
T1 construct: range 26-232; Analyte of the Biacore experiment
Put plainly: SPR, Biacore T200, antibody captured on Protein-A chip, hIL-4R alpha-ECD-Flag as analyte. As to the method: The affinity of six purified humanized antibodies was detected by Biacore T200 (GE healthcare), with the reference antibody Dupilumab as a control. The specific experimental method was as follows: a Protein-A CMS sensor chip (GE healthcare) was used, with FC1 (Flow cell 1) as a reference channel, and FC2 (Flow cell 2) as a sample channel. Humanized antibodies or control antibody were captured in the FC2 channel, and then hIL-4R alpha-ECD-Flag at different concentrations was injected. Cycling conditions were as follows: an analyte was injected into all channels of FCs at 50 μl/min for 4 min, with a dissociation time of 20 min, and 6M guanidine hydrochloride (Sinopharm Chemical Reagent Co., Ltd.) was injected at a rate of 10 μl/min for 30 s for surface regeneration. Then, signal differences and affinity for interaction between captured antibodies and non-captured antibodies were calculated by Biacore T200 Evaluation Software Ver 1.0.
Background: In SPR one partner is held on a chip, and binding of the other changes the refractive index at the surface.
Broadly, the Kd is the free concentration of one partner at which half of the binding sites on the other are occupied at equilibrium, for simple one-to-one binding. A higher Kd goes with lower affinity. As usually defined, the koff is the first-order rate constant of dissociation. Low values mean slow dissociation, high ones fast dissociation. As usually defined, the kon is the second-order rate constant of association. High values mean fast association, low ones slow association. Turning to B1, binding was put at a Kd of 0.912 nM, the koff was found to be 0.000658 s⁻¹ and the kon turned out to be 721000 M⁻¹ s⁻¹.
On the same counts, the results for B2 are 0.403 nM, 0.00018 s⁻¹ and 446000 M⁻¹ s⁻¹.

The target in the next test is T2, hIL-4R alpha-ECD-Fc (human, UniProt P24394 26-232).
T2 construct: range 26-232; hFc at the C-terminus of the ECD; also called hIL4R alpha-ECD-hFc; hIL-4R alpha-Fc antigen
The test can be described thus: ELISA, plate coated with 1 ug/ml hIL-4R alpha-ECD-Fc. How it is done:
The titer was tested by ELISA: an ELISA plate was coated with the hIL-4R alpha ECD-Fc antigen at a concentration of 1 μg/ml, 100 μl per well, and coated overnight at 4° C. The plates were washed twice with PBST (PBS containing 0.5% Tween-20) and then pat-dried. Each well was blocked with 200 μl of coating solution containing 1% BSA, blocked at room temperature for 4 h, pat-dried, and stored in a refrigerator at −20° C. for later use. During testing, 100 μl of mouse serum at different concentrations was added to each well of the ELISA plate, with two replicate wells, for incubation at room temperature for 1.5 h. The wells were washed with PBST for 3 times and then pat-dried. Then 100 μl of rabbit anti-mouse IgG labeled with HRP diluted with PBST by 1:10000 (purchased from Sigma) was added and the plates were incubated at room temperature for 1 h. The wells were washed with PBST for 3 times and then pat-dried. Then 100 μl of chromogenic solution was added to each well (an ELISA chromogenic solution A was mixed with a chromogenic solution B at a volume ratio of 1:1 before use) for a chromogenic reaction, and then 100 μl of 2M H2SO4 stopping solution was added to each well to terminate the reaction. The OD value of each well was immediately measured at 450 nm with a microplate reader (Molecular Device).
Optimized murine anti-hIL-4R alpha monoclonal antibodies were purified by a ProteinG affinity chromatography column and quantified by BCA. The EC50 of anti-hIL-4R alpha monoclonal antibodies binding to hIL-4R alpha was tested by ELISA. The testing method is as described in Example 3. An ELISA plate was coated with 1 μg/ml of hIL-4R alpha-ECD-Fc antigen, and then murine anti-hIL-4R alpha monoclonal antibodies at different concentrations were added for testing.
For orientation: ELISA stands for enzyme-linked immunosorbent assay.
As usually defined, the EC50 is the concentration that produces a half-maximal response. A high value points to weaker potency. B3 came in with an EC50 of 0.0076 µg/mL.
Same read-out and setting: in the case of B4 it was 0.01 µg/mL; in that of B5, 0.0138 µg/mL; in that of B6, 0.0096 µg/mL.
Still for that read-out and setting: the result for B7 reads 0.0122 µg/mL; that for B8, 0.012 µg/mL.
On the same count and under the same terms, in the case of B9 it was 0.0091 µg/mL; in that of B10, 0.0089 µg/mL.

In a further test the target is human IL-4R alpha on cells (TF-1 cells; human peripheral blood mononuclear cells) (human, UniProt P24394 26-825). The test can be described thus: cell-based or functional assay.
As to B3, the “IC50 (ng/ml), inhibition of IL-4-induced TF-1 proliferation” value turned out to be 65.3 ng/mL.
Same read-out and setting: the result for B4 reads 59.7 ng/mL; that for B5, 47.1 ng/mL; that for B6, 24.6 ng/mL.
Same read-out and setting: the result for B7 reads 31.3 ng/mL; that for B8, 53.7 ng/mL.
Regarding B9, the “IC50 (ng/ml), inhibition of IL-4-induced TF-1 proliferation” value came to 67.2 ng/mL.
Still for that read-out and setting: the result for B10 reads 19 ng/mL.
